Laboratory results taken from patent US20250276077A1, “EPHA2 ANTIBODIES” (Immunome, Inc., priority 2022, published 2025).

How the values were obtained:
[1] = target: C-terminally His-tagged hEphA2-FN2 (Thr437-Asn534+His tag) (human) (UniProt P29317); assay: SPR Biacore T200, 25 C; mIgG2a as immobilized ligand, hEphA2-FN2-His analyte
[2] = target: Human EphA2 (ephrin receptor A2), native, in human tumor tissue (human) (UniProt P29317); assay: IF tumor tissue STS, 1 ug/ml
[3] = target: Human EphA2 (ephrin receptor A2), native, in human tumor tissue (human) (UniProt P29317); assay: IF tumor tissue STS, 30 ug/ml
[4] = target: Human EphA2 (ephrin receptor A2), native, in human tumor tissue (human) (UniProt P29317); assay: IF tumor tissue NSCLC-Adeno, 1 ug/ml
[5] = target: Human EphA2 (ephrin receptor A2), native, in human tumor tissue (human) (UniProt P29317); assay: IF tumor tissue NSCLC-Adeno, 30 ug/ml
[6] = target: Human EphA2 (ephrin receptor A2), native, in human tumor tissue (human) (UniProt P29317); assay: tissue staining of human cancer samples, 3 ug/ml
[7] = target: Human EphA2 (ephrin receptor A2), native, in human tumor tissue (human) (UniProt P29317); assay: IF tumor tissue NSCLC-SQ, 30 ug/ml
[8] = target: Human EphA2 (ephrin receptor A2), native, in human tumor tissue (human) (UniProt P29317); assay: IF tumor tissue MELA, 0.1 ug/ml
[9] = target: Human EphA2 (ephrin receptor A2), native, in human tumor tissue (human) (UniProt P29317); assay: IF tumor tissue URO, 0.3 ug/ml
[10] = target: Human EphA2 (ephrin receptor A2), native, in human tumor tissue (human) (UniProt P29317); assay: IF tumor tissue NSCLC-SQ, 1 ug/ml
[11] = target: Human EphA2 (ephrin receptor A2), native, in human tumor tissue (human) (UniProt P29317); assay: IF tumor tissue NSCLC-SQ, 3 ug/ml
[12] = target: Human EphA2 (ephrin receptor A2), native, in human tumor tissue (human) (UniProt P29317); assay: IF tumor tissue NSCLC-Adeno, 3 ug/ml
[13] = target: Human EphA2 (ephrin receptor A2), native, in human tumor tissue (human) (UniProt P29317); assay: IF tumor tissue NSCLC-SQ, 10 ug/ml
[14] = target: Human EphA2 (ephrin receptor A2), native, in human tumor tissue (human) (UniProt P29317); assay: IF tumor tissue Uterine, 3 ug/ml
[15] = target: Human EphA2 (ephrin receptor A2), native, in human tumor tissue (human) (UniProt P29317); assay: IF tumor tissue URO, 0.1 ug/ml
[16] = target: Human EphA2 (ephrin receptor A2), native, in human tumor tissue (human) (UniProt P29317); assay: IF tumor tissue RCC-papillary, 0.3 ug/ml
[17] = target: Human EphA2 (ephrin receptor A2), native, in human tumor tissue (human) (UniProt P29317); assay: IF tumor tissue PANC, 0.3 ug/ml
[18] = target: Human EphA2 (ephrin receptor A2), native, in human tumor tissue (human) (UniProt P29317); assay: IF tumor tissue MELA, 3 ug/ml
[19] = target: Human EphA2 (ephrin receptor A2), native, in human tumor tissue (human) (UniProt P29317); assay: IF tumor tissue RCC-papillary, 30 ug/ml
[20] = target: Human EphA2 (ephrin receptor A2), native, in human tumor tissue (human) (UniProt P29317); assay: IF tumor tissue ESO, 0.3 ug/ml
[21] = target: Human EphA2 (ephrin receptor A2), native, in human tumor tissue (human) (UniProt P29317); assay: IF tumor tissue PANC, 1 ug/ml
[22] = target: Human EphA2 (ephrin receptor A2), native, in human tumor tissue (human) (UniProt P29317); assay: IF tumor tissue Uterine, 30 ug/ml
[23] = target: Human EphA2 (ephrin receptor A2), native, in human tumor tissue (human) (UniProt P29317); assay: IF tumor tissue Uterine, 0.1 ug/ml
[24] = target: Human EphA2 (ephrin receptor A2), native, in human tumor tissue (human) (UniProt P29317); assay: IF tumor tissue URO, 3 ug/ml
[25] = target: Human EphA2 (ephrin receptor A2), native, in human tumor tissue (human) (UniProt P29317); assay: IF tumor tissue STS, 3 ug/ml
[26] = target: Human EphA2 (ephrin receptor A2), native, in human tumor tissue (human) (UniProt P29317); assay: IF tumor tissue MELA, 1 ug/ml
[27] = target: Human EphA2 (ephrin receptor A2), native, in human tumor tissue (human) (UniProt P29317); assay: IF tumor tissue RCC-papillary, 10 ug/ml
[28] = target: Human EphA2 (ephrin receptor A2), native, in human tumor tissue (human) (UniProt P29317); assay: IF tumor tissue MELA, 0.3 ug/ml
[29] = target: Human EphA2 (ephrin receptor A2), native, in human tumor tissue (human) (UniProt P29317); assay: IF tumor tissue NSCLC-SQ, 0.3 ug/ml
[30] = target: Human EphA2 (ephrin receptor A2), native, in human tumor tissue (human) (UniProt P29317); assay: IF tumor tissue URO, 1 ug/ml
[31] = target: Human EphA2 (ephrin receptor A2), native, in human tumor tissue (human) (UniProt P29317); assay: IF tumor tissue STS, 10 ug/ml
[32] = target: Human EphA2 (ephrin receptor A2), native, in human tumor tissue (human) (UniProt P29317); assay: IF tumor tissue URO, 10 ug/ml
[33] = target: Human EphA2 (ephrin receptor A2), native, in human tumor tissue (human) (UniProt P29317); assay: IF tumor tissue MELA, 30 ug/ml

Chain of Human EphA2 (ephrin receptor A2), native, in human tumor tissue (human) (P29317 25-976): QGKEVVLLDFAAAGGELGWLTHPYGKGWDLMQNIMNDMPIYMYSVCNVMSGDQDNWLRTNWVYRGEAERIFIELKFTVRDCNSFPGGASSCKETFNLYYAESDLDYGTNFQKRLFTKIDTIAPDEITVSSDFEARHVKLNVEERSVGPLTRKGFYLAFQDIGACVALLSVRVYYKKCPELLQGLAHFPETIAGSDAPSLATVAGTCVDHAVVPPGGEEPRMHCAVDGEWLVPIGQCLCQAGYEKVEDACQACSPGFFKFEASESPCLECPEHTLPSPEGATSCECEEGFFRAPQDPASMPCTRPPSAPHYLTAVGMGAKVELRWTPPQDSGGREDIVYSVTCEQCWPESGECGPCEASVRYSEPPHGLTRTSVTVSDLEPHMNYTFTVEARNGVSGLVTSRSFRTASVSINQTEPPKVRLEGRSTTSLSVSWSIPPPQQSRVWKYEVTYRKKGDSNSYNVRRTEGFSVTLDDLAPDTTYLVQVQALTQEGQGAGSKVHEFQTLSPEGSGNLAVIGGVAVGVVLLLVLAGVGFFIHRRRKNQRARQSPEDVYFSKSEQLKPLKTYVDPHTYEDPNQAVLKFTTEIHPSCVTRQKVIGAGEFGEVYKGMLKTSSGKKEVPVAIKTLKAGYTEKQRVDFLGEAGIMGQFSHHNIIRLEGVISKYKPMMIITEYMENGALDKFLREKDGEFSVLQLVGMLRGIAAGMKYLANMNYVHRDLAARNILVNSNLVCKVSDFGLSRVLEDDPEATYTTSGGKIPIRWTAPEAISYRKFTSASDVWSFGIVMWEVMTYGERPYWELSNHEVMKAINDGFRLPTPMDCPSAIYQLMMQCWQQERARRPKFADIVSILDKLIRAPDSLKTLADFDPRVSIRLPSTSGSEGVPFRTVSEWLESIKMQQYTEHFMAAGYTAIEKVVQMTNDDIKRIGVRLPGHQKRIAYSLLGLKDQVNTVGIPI
Chain of C-terminally His-tagged hEphA2-FN2 (Thr437-Asn534+His tag) (human) (P29317 437-534 limits assumed): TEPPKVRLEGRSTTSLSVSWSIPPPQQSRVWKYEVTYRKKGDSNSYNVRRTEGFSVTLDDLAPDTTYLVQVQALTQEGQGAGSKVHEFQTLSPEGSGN

## AB-010018 (mouse monoclonal antibody precursor of DS-8895a; mouse IgG2a format)
[1]
  Kd: 4.3 nM
  koff: 0.0021 s⁻¹
  kon: 490000 M⁻¹ s⁻¹
[2]
  tissue reactivity score: 1
[3]
  tissue reactivity score: 2
[4]
  tissue reactivity score: 1
[5]
  tissue reactivity score: 1
[6]
  Reactive (% of samples), Bladder Urothelial Carcinoma: 77%
  Reactive (% of samples), Breast Cancer: 93%
  Reactive (% of samples), Cervical Squamous Cell Carcinoma: 75%
  Reactive (% of samples), Colorectal Adenocarcinoma: 85%
  Reactive (% of samples), Head & Neck Squamous Cell Carcinoma: 63%
  Reactive (% of samples), Liver Hepatocellular Cell Carcinoma: 39%
  Reactive (% of samples), Melanoma: 46%
  Reactive (% of samples), Ovarian Cancer: 71%
  Reactive (% of samples), Soft Tissue Sarcoma: 14%
  Reactive (% of samples), Stomach Adenocarcinoma: 88%
  Reactive (% of samples), Testicular Cancer: 17%
  Reactive (% of samples), Thyroid Cancer: 13%
  Reactive (% of samples), Uterine Cancer: 38%
[7]
  tissue reactivity score: 2
[8]
  tissue reactivity score: 1
[9]
  tissue reactivity score: 2
[10]
  tissue reactivity score: 1
[11]
  tissue reactivity score: 1
[12]
  tissue reactivity score: 1
[13]
  tissue reactivity score: 1
[14]
  tissue reactivity score: 2
[15]
  tissue reactivity score: 2
[16]
  tissue reactivity score: 1
[17]
  tissue reactivity score: 2
[18]
  tissue reactivity score: 2
[19]
  tissue reactivity score: 2
[20]
  tissue reactivity score: 1
[21]
  tissue reactivity score: 2
[22]
  tissue reactivity score: 2
[23]
  tissue reactivity score: 1
[24]
  tissue reactivity score: 2
[25]
  tissue reactivity score: 1
[26]
  tissue reactivity score: 2
[27]
  tissue reactivity score: 2
[28]
  tissue reactivity score: 2
[29]
  tissue reactivity score: 1
[30]
  tissue reactivity score: 2
[31]
  tissue reactivity score: 1
[32]
  tissue reactivity score: 2
[33]
  tissue reactivity score: 2
